Experimental data reported in the supplement of paper PMC6757056.
± gives the standard deviation of the averaged measurements.

B1: library; a variant is named by its letters at N, in order (parent)
chain: GCUGUCACCGGUGUAUUACCCUAGUGGUCGACCGGUCUGAUGAGUCUNNNNNNAGACGAAACAGC

Assays:
[1] = variants of: B1; assay: FACS-Seq fitted mean relative fluorescence mCherry/BFP without ligand (log10 relative fluorescence); ligand: hypoxanthine (xanthine aptamer); higher = higher reporter protein expression; conditions: HEK293T, ligand present: no
How it was run: (§1)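 Fluorescence values are fitted normal means of bin counts along the mCherry/BFP axis. HEK293T libraries lentivirally carrying the ribozyme switch in an mCherry reporter, with an EF1α-BFP marker, were enriched, exposed to ligand or not for 48 h, and sorted into 6 bins. Genomic DNA per bin was PCR-amplified, barcoded and run on MiSeq. Means of log10(mCherry/BFP) were scaled to five spiked-in control ribozymes.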

[2] = variants of: B1; assay: normalized RNA/DNA level with ligand (relative to sTRSVctl = 100) (log10 (% of sTRSVctl)); ligand: hypoxanthine (xanthine aptamer); higher = less ribozyme self-cleavage, higher mRNA level; conditions: ligand concentration (+) RNA-Seq: 5 mM, HEK293T, reporter: mCherry (pCS4076), ligand present: yes
How it was run: (§2)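 Library plasmids encoding reporter-linked ribozyme switches (mCherry, or eGFP for some folinic acid experiments) were transfected into HEK293T at 4 µg per 6-well well. Ligand, when used, was added 1 h before transfection. Total RNA was extracted with EDTA 72 h later, then reverse-transcribed, amplified, barcoded and sequenced. RNA level was RNA reads over DNA reads, divided by a spiked-in non-cleaving control (or the top 25 sequences), ×100, log10; only sequences with ≥100 DNA reads were kept.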

[3] = variants of: B1; assay: normalized RNA/DNA level without ligand (relative to sTRSVctl = 100) (log10 (% of sTRSVctl)); ligand: hypoxanthine (xanthine aptamer); higher = less ribozyme self-cleavage, higher mRNA level; conditions: HEK293T, reporter: mCherry (pCS4076), ligand present: no
How it was run: as §2

[4] = variants of: B1; assay: FACS-Seq fitted mean relative fluorescence mCherry/BFP with ligand (log10 relative fluorescence); ligand: hypoxanthine (xanthine aptamer); ligand concentration (+) FACS-Seq: 5 mM; higher = higher reporter protein expression; conditions: HEK293T, ligand present: yes
How it was run: as §1

Variant	FACS-Seq fitted mean (log10) [1]	normalized RNA/DNA level with ligand (log10) [2]	normalized RNA/DNA level without ligand (log10) [3]	FACS-Seq fitted mean (log10) [4]
AGCAGA	0.386 ± 0.043	1.879 ± 0.01	1.41 ± 0.027	0.623 ± 0.019
AGCAGC	0.426 ± 0.013	1.99 ± 0.058	1.74 ± 0.049	0.54 ± 0.14
AGCAGG	0.0745 ± 0.0069	1.83 ± 0.055	1.396 ± 0.0059	0.533 ± 0.079
CGCAAA	0.57 ± 0.013	1.897 ± 0.0028	1.7 ± 0.022	0.491 ± 0.024
CGCGUA	0.477 ± 0.0013	1.95 ± 0.041	1.81 ± 0.067	0.659 ± 0.013
GGACUG	0.544 ± 0.086	1.888 ± 0.012	1.58 ± 0.041	0.601 ± 0.1
GGAGGA	-0.168 ± 0.034	1.934 ± 0.0025	1.64 ± 0.078	0.231 ± 0.0056
GGAGGU	0.54 ± 0.019	1.923 ± 0.013	1.779 ± 0.01	0.48 ± 0.021
AGAGGA	0.5707 ± 0.0052	1.892 ± 0.016	1.6297 ± 0.00023	0.701 ± 0.028
AGAGGU	0.557 ± 0.061	1.9 ± 0.035	1.52 ± 0.032	0.802 ± 0.07
UGCUAU	0.535 ± 0.025	1.93 ± 0.023	1.88 ± 0.028	0.662 ± 0.05
AGCGAG	0.352 ± 0.055	1.8 ± 0.031	1.36 ± 0.062	0.443 ± 0.043
AGCGAC	-0.228 ± 0.049	1.93 ± 0.043	1.787 ± 0.00037	0.298 ± 0.021
AGCGAA	0.534 ± 0.068	1.924 ± 0.017	1.6852 ± 0.00025	0.62 ± 0.014
GGAUUG	0.023 ± 0.012	1.857 ± 0.017	1.42 ± 0.059	0.4602 ± 0.0025
AGCAUU	-0.328 ± 0.0053	1.92 ± 0.065	1.86 ± 0.057	-0.19 ± 0.0097
AGCAUA	0.318 ± 0.075	1.9 ± 0.044	1.82 ± 0.02	0.286 ± 0.19
AGCAUG	0.201 ± 0.012	1.87 ± 0.079	1.4892 ± 0.001	-0.275 ± 0.19
CGCUGC	0.163 ± 0.06	1.98 ± 0.096	1.95 ± 0.083	0.518 ± 0.079
CGCUGA	0.643 ± 0.033	1.9529 ± 0.00012	1.89 ± 0.03	0.635 ± 0.0074
GGAUAG	0.188 ± 0.013	1.83 ± 0.028	1.39 ± 0.049	0.508 ± 0.041
GGAUAC	0.616 ± 0.019	1.93 ± 0.026	1.73 ± 0.042	0.623 ± 0.084
GGAUAA	0.5354 ± 0.0025	1.9 ± 0.025	1.74 ± 0.024	0.552 ± 0.016
GGAGCA	0.654 ± 0.037	1.946 ± 0.0077	1.783 ± 0.0088	0.686 ± 0.1

Variant	FACS-Seq fitted mean (log10) [1]	normalized RNA/DNA level with ligand (log10) [2]	normalized RNA/DNA level without ligand (log10) [3]	FACS-Seq fitted mean (log10) [4]
GGAGCU	0.211 ± 0.041	1.956 ± 0.0072	1.96 ± 0.044	-0.117 ± 0.033
GGAGCG	0.171 ± 0.034	1.93 ± 0.043	1.49 ± 0.04	0.456 ± 0.023
AGCGCU	0.228 ± 0.049	1.93 ± 0.032	1.85 ± 0.028	0.22 ± 0.0027
AGCGCG	0.0574 ± 0.015	1.91 ± 0.083	1.43 ± 0.051	0.359 ± 0.012
CGCCAG	0.462 ± 0.027	1.99 ± 0.051	1.84 ± 0.12	0.537 ± 0.0082
GGCCUG	0.145 ± 0.02	1.99 ± 0.062	1.809 ± 0.013	0.239 ± 0.046
UGCGCG	0.142 ± 0.0059	1.94 ± 0.032	1.75 ± 0.035	0.383 ± 0.012
UGCCGG	-0.14 ± 0.0069	1.938 ± 0.0072	1.71 ± 0.068	-0.119 ± 0.14
UGCCAG	0.421 ± 0.0089	1.9 ± 0.034	1.727 ± 0.0076	0.288 ± 0.093
UGCCAC	0.327 ± 0.019	1.94 ± 0.031	1.89 ± 0.02	0.42 ± 0.01
UGAUUC	0.59 ± 0.061	1.993 ± 0.0057	1.977 ± 0.011	0.627 ± 0.06
UGAUUU	0.485 ± 0.022	1.945 ± 0.0024	1.924 ± 0.012	0.6805 ± 0.0064
CGAGUC	0.0141 ± 0.11	1.958 ± 0.016	1.91 ± 0.094	0.106 ± 0.053
CGAGUU	0.866 ± 0.02	2 ± 0.039	1.834 ± 0.015	0.833 ± 0.11
GGCCGU	0.465 ± 0.071	1.95 ± 0.034	1.945 ± 0.014	0.502 ± 0.0071
UGAGGA	0.402 ± 0.033	1.885 ± 0.015	1.5 ± 0.056	0.633 ± 0.061
UGCAGU	-0.0358 ± 0.0051	1.906 ± 0.016	1.434 ± 0.0054	0.345 ± 0.15
UGCAGG	0.297 ± 0.033	1.8726 ± 0.0012	1.39 ± 0.073	0.49 ± 0.056
UGCAGA	0.169 ± 0.0021	1.84 ± 0.032	1.43 ± 0.021	0.4015 ± 0.00097
UGACUA	0.629 ± 0.091	1.953 ± 0.017	1.86 ± 0.029	0.141 ± 0.079
UGACUC	0.621 ± 0.043	2.01 ± 0.036	1.97 ± 0.033	0.678 ± 0.044
AGCACC	-0.563 ± 0.05	1.98 ± 0.063	1.844 ± 0.0071	-0.00735 ± 0.0039
AGCACG	0.385 ± 0.023	1.87 ± 0.055	1.44 ± 0.085	0.609 ± 0.062
AGCACA	-0.251 ± 0.011	1.92 ± 0.044	1.787 ± 0.0038	-0.513 ± 0.043

Variant	FACS-Seq fitted mean (log10) [1]	normalized RNA/DNA level with ligand (log10) [2]	normalized RNA/DNA level without ligand (log10) [3]	FACS-Seq fitted mean (log10) [4]
UGCCUA	0.664 ± 0.022	1.94 ± 0.039	1.929 ± 0.0053	0.57 ± 0.049
UGCCUG	0.608 ± 0.0066	1.91 ± 0.1	1.73 ± 0.042	0.712 ± 0.07
UGCCUC	0.735 ± 0.008	2 ± 0.064	2.01 ± 0.023	0.659 ± 0.051
AGCUCG	0.177 ± 0.0048	1.931 ± 0.0082	1.63 ± 0.11	0.448 ± 0.0069
UGCCCA	0.234 ± 0.013	1.944 ± 0.002	1.92 ± 0.043	-0.0574 ± 0.058
AGACGG	0.689 ± 0.072	1.81 ± 0.044	1.3085 ± 0.0012	0.834 ± 0.073
AGACGU	0.722 ± 0.019	1.9 ± 0.043	1.59 ± 0.03	0.696 ± 0.067
GGCAAU	-0.272 ± 0.047	1.92 ± 0.04	1.86 ± 0.024	-0.0445 ± 0.018
GGCAAC	-0.242 ± 0.05	1.947 ± 0.0067	1.86 ± 0.024	-0.0947 ± 0.011
GGCAAA	-0.106 ± 0.017	1.9638 ± 0.0011	1.83 ± 0.037	-0.0498 ± 0.0022
GGCAAG	0.564 ± 0.072	1.88 ± 0.028	1.47 ± 0.022	0.712 ± 0.075
UGAGAU	0.648 ± 0.051	1.887 ± 0.017	1.713 ± 0.0063	0.743 ± 0.033
UGAGAA	0.552 ± 0.021	1.86 ± 0.019	1.74 ± 0.018	0.638 ± 0.083
UGAGAG	0.372 ± 0.012	1.87 ± 0.03	1.67 ± 0.04	0.364 ± 0.023
CGAGAA	0.492 ± 0.014	1.907 ± 0.0062	1.58 ± 0.0075	0.65 ± 0.015
CGAGAG	0.304 ± 0.055	1.9 ± 0.078	1.71 ± 0.032	0.258 ± 0.014
UGCGUA	0.287 ± 0.015	1.92 ± 0.05	1.86 ± 0.032	0.413 ± 0.031
AGCUGA	0.203 ± 0.08	1.91 ± 0.043	1.74 ± 0.067	0.0306 ± 0.017
AGAUUC	0.691 ± 0.017	1.92 ± 0.051	1.92 ± 0.037	0.707 ± 0.069
GGAGUG	0.301 ± 0.025	1.85 ± 0.027	1.413 ± 0.014	0.7 ± 0.032
GGAGUC	0.764 ± 0.047	1.93 ± 0.042	1.885 ± 0.014	0.567 ± 0.047
AGCUAC	-0.583 ± 0.06	1.96 ± 0.058	1.778 ± 0.0088	-0.175 ± 0.051
GGAUGG	0.131 ± 0.02	1.85 ± 0.027	1.33 ± 0.034	0.472 ± 0.035
